In PMC10113271 (2023):
Where no end group is shown, it is not given here. The star is where a group is joined. FITC = O=C1OC2(c3ccc(O)cc3Oc3cc(O)ccc32)c2ccc(NC(=S)*)cc21; βAla = NCCC(=O)O

Molecular target: KIX domain of CREB-binding protein (residues 586–672 of mouse CBP) (mouse, UniProt P45481 586-672)
Experiment: FP

KIX domain of CREB-binding protein (residues 586–672 of mouse CBP), sequence (P45481 586-672): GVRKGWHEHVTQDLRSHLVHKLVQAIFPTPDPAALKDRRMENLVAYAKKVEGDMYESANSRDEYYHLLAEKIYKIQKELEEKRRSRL

B1: FITC-labeled c-Myb TAD peptide (peptide)
peptide: {FITC-βAla}-GYNDEDPEKEKRIKELELLLMSTENELKGQQAL
  Kd: 59 nM
